Results on two molecules are retold here after publication PMC4551927 (Nucleic Acids Research, 2015).

To fix the notation:
B1: Mycobacterium tuberculosis VapB30 antitoxin (natural protein)
chain: MALSIKHPEADRLARALAARTGETLTEAVVTALRERLARETGRARVVPLRDELAAIRHRCAALPVVDNRSAEAILGYDERGLPA
B2: Mycobacterium tuberculosis VapC30 toxin (natural protein)
chain: MMVIDTSALVAMLSDEPDAERFEAAVEADHIRLMSTASYLETALVIEARFGEPGGRELDLWLHRAAVDLVAVHADQADAARAAYRTYGKGRHRAGLNYGDCFSYGLAKISGQPLLFKGEDFQHTDIATVALP

Data set [1] has as its target B2. The experiment in a line: crystal structure.
The data set “crystal structure” concerns the molecule itself. The experiment in a line: crystal structure.

On to B1, for which the binding result (in data set [1]; in the data set “crystal structure”) was “binds” each time.
In the case of B2, in “crystal structure”, the binding result is on record as “binds”.
